In the series the target is VDRE-BP (NWP nuclear VDRE binding protein, B95-8 nuclear extract) (UniProt Q9TTV2). Description: competition. As to conditions: 100-fold excess unlabeled competitor.
VDRE-BP (NWP nuclear VDRE binding protein, B95-8 nuclear extract), sequence (Q9TTV2 whole entry): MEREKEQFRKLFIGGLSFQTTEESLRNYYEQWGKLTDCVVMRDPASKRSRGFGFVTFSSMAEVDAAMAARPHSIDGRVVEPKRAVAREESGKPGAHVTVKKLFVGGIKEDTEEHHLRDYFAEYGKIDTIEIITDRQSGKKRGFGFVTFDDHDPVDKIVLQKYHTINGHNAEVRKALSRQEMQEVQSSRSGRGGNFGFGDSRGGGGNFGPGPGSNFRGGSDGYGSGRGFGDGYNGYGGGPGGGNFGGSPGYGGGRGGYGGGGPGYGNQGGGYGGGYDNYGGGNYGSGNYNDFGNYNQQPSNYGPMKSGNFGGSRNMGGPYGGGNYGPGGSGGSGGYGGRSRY

In turn, GGTTCA direct repeat, 3 bp spacer returned a binding signal (% decrease of opVDRE band) of 61.

AGGTCA direct repeat, 3 bp spacer: the binding signal (% decrease of opVDRE band) is 64.

(Values after patent US5994504.)
